Target: T1, methylamine dehydrogenase (quinone MADH) (Paracoccus denitrificans, UniProt P22619)
T1 chain 1: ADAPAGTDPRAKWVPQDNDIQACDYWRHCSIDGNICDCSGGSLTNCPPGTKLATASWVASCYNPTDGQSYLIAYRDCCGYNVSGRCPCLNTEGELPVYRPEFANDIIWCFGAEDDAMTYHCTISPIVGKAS
T1 chain 2: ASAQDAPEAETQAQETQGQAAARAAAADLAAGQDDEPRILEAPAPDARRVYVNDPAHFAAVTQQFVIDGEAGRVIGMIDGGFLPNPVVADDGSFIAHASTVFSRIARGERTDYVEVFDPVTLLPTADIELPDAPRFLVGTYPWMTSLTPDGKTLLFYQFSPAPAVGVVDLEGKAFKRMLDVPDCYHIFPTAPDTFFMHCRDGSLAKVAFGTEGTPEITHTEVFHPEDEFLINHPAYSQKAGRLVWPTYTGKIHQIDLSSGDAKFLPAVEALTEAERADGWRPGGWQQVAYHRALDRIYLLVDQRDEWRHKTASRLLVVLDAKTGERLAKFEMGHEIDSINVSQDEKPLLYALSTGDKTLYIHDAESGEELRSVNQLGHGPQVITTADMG
Test: single-turnover kinetics

B1: MauG (protein)
chain: EQARPADDALAALGAQLFVDPALSRNATQSCATCHDPARAFTDPREGKAGLAVSVGDDGQSHGDRNTPTLGYAALVPAFHRDANGKYKGGQFWDGRADDLKQQAGQPMLNPVEMAMPDRAAVAARLRDDPAYRTGFEALFGKGVLDDPERAFDAAAEALAAYQATGEFSPFDSKYDRVMRGEEKFTPLEEFGYTVFITWNCRLCHMQRKQGVAERETFTNFEYHNIGLPVNETAREASGLGADHVDHGLLARPGIEDPAQSGRFKVPSLRNVAVTGPYMHNGVFTDLRTAILFYNKYTSRRPEAKINPETGAPWGEPEVARNLSLAELQSGLMLDDGRVDALVAFLETLTDRRYEPLLEESRAAQKD
- Kd: 10.4 µM

— article PMC3985960 (2014)
